The Kd is the equilibrium constant for the complex coming apart. The low end stands for a tighter complex, the high end for a looser complex.

Experimental findings from patent US20260250420A1 (SICHUAN KELUN BIOTECH BIOPHARMACEUTICAL, published 2026) are described below.

Test [1] deals with T1, human Fc receptor protein FcRn (human, UniProt P55899 24-297; P61769 21-119, biotinylated).
T1 construct: Biotinylated protein captured on SA sensors
The experiment in a line: BLI (ForteBio), biotinylated receptor on SA sensor, antibody from 5,000 nM, 1:1 global fit. An excerpt: (§1) The dynamic affinity of the antibodies 101A6HZ, 101A6HZm and Hu24 with human Fc receptor proteins CD16a, CD32a, CD32b, CD64 and FcRn was detected through ForteBio (Pall life sciences).
(Biolayer interferometry detects binding as a change in optical thickness at a sensor tip.)

In test [2] the target is T2, human PTK7 on cells (tumor cells endogenously expressing PTK7); CHO-hPTK7, CHO-S-hPTK7 and 293T-hPTK7 … (human, UniProt Q13308 31-1070).
T2 sequence (looked up): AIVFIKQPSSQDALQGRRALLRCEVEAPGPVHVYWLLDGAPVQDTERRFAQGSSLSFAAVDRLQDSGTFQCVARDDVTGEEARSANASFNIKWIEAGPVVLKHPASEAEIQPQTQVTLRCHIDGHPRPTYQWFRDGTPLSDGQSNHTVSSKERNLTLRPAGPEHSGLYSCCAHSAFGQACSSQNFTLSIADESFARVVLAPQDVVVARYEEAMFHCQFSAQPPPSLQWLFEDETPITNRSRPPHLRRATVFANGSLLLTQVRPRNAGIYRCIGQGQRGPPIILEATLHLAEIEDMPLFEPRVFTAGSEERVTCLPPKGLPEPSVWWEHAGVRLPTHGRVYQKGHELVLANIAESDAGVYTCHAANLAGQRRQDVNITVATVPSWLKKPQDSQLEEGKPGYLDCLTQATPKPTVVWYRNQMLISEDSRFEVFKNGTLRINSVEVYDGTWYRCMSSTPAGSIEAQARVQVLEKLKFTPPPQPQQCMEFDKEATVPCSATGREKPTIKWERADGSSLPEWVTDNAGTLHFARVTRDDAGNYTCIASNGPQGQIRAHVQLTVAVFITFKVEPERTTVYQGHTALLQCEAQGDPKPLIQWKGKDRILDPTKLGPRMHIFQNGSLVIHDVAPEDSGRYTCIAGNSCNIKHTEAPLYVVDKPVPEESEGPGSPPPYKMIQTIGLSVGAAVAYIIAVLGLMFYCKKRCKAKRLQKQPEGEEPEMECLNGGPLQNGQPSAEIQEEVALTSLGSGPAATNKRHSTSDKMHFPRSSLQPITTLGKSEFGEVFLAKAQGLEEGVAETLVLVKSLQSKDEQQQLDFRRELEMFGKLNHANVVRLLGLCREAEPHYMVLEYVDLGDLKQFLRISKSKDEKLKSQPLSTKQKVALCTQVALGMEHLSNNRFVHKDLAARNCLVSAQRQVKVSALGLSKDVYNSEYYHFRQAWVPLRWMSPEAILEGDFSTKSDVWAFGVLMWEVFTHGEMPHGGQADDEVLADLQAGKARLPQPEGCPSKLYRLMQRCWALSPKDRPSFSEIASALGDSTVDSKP
The experiment in a line: cell-based or functional assay.

Test [3] addresses T3, human Fc receptor protein CD64 (human, UniProt P12314 16-292, limits assumed, biotinylated).
T3 construct: Biotinylated protein captured on SA sensors
Nature of the test: BLI (ForteBio), biotinylated receptor on SA sensor, antibody in solution.
Description: as §1

Test [4] deals with T4, human Fc receptor protein CD32b (human, UniProt P31994 43-217, biotinylated).
T4 construct: Biotinylated protein captured on SA sensors
T4 sequence (looked up): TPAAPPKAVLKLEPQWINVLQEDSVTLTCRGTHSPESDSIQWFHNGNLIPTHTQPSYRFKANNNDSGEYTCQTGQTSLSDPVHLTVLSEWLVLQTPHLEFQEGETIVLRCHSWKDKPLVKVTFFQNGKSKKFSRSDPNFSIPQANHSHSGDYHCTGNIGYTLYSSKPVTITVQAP
The description is as above.
Description: as §1

Test [5] addresses T5, human Fc receptor protein CD32a (human, UniProt P12318 34-217, biotinylated).
T5 construct: Biotinylated protein captured on SA sensors
T5 sequence (looked up): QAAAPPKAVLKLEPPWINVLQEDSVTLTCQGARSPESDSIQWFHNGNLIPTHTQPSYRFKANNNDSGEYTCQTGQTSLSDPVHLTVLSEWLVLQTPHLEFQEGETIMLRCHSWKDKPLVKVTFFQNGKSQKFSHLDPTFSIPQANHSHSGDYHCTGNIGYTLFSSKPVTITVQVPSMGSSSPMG
The test is described as above.
Description: as §1

Test [6] has as its target T6, human Fc receptor protein CD16a (human, UniProt P08637 17-208, biotinylated).
T6 construct: Biotinylated protein captured on SA sensors
The description is as above.
Description: as §1

T1 sequence (P55899 24-297 limits assumed, form in doubt, chain 1 of 2): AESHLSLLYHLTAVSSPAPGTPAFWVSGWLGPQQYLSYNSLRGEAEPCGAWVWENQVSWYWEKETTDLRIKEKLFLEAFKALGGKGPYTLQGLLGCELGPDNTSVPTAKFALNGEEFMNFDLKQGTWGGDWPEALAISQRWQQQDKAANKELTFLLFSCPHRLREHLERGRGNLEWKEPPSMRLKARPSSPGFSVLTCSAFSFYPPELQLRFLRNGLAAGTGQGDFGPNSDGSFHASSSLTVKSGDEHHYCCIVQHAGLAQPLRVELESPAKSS
T1 sequence (P61769 21-119 limits assumed, form in doubt, chain 2 of 2): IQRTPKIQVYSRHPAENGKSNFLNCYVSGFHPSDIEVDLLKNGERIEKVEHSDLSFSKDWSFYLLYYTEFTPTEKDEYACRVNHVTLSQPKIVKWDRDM
T6 sequence (P08637 17-208 limits assumed): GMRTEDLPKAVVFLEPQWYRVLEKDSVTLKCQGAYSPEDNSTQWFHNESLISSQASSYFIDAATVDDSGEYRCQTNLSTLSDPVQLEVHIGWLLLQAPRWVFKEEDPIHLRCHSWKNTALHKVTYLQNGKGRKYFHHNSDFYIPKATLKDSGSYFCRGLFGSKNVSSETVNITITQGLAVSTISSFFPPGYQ
T3 sequence (P12314 16-292 limits assumed): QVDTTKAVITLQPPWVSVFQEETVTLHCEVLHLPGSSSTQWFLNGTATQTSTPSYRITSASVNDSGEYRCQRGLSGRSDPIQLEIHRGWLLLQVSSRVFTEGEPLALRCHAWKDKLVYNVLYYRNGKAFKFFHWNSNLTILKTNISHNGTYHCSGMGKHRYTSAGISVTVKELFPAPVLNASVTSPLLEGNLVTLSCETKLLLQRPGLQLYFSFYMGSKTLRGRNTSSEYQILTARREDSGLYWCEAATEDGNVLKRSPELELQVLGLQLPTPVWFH

B1: 101A6HZm (101A6HZ with mutant human heavy chain constant region IgG1m) (antibody)
heavy: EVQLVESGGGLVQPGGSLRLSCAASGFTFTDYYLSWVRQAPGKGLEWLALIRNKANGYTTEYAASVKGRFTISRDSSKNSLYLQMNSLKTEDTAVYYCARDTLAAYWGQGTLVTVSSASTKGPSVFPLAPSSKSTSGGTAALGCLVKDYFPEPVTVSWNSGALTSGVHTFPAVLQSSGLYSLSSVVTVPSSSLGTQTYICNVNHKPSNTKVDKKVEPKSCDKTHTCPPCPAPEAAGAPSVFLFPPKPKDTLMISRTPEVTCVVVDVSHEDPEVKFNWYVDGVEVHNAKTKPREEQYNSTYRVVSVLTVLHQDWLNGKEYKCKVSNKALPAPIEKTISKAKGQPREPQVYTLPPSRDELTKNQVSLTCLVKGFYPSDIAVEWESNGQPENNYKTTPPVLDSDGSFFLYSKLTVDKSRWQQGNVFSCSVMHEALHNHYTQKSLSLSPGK
light: DIVMTQSPDSLAVSLGERATINCKASQDVGSAVIWYQQKPGQSPKLLIYWASTRHTGVPDRFSGSGSGTDFTLTISSLQAEDVAVYYCQQYSSYPLTFGQGTKLEIKRTVAAPSVFIFPPSDEQLKSGTASVVCLLNNFYPREAKVQWKVDNALQSGNSQESVTEQDSKDSTYSLSSTLTLSKADYEKHKVYACEVTHQGLSSPVTKSFNRGEC
notes: light chain as in 101A6HZ; also called anti-human PTK7 humanized mutant antibody
In turn, B1 showed a Kd in test [1] of 0.0166 µM. Also, in test [2], the “Cell endocytosis, EC50, A431 cells” value turned out to be 0.0732 mg/L; the “Cell endocytosis, EC50, HCC1806 cells” value was found to be 0.0576 mg/L; the “Cell endocytosis, EC50, NCI-H358 cells” value worked out at 0.0729 mg/L; the “Cell endocytosis, EC50, OVCAR3 cells” value was 0.0665 mg/L. Besides, the binding result in test [3] is recorded as “no binding (tested: initial concentration of 5,000 nM)”. In test [4], the binding result was “no binding (tested: initial concentration of 5,000 nM)”. The binding result in test [5] is “no binding (tested: initial concentration of 5,000 nM)”. The binding result in test [6] is on record as “no binding (tested: initial concentration of 5,000 nM)”.
